According to patent US20220275350A1 (MAX PLANCK GESELLSCHAFT ZUR F RDERUNG DER WISSENSCHAFTEN E V, published 2022):

Target: T1, cpHaloΔ9mer
T1 construct: also called cpHalo_9mer; cpHalo156-141
Assay: ITC; 9mer peptide (~30 mM) titrated into 0.6 mM cpHaloΔ9mer; three independent measurements; one-site model
Procedure: Heat of dilution of the peptide was subtracted prior to the analysis. Kd was calculated from three independent measurements, error represents standard deviation.
This maximal concentration of peptide was titrated against a 0.6 mM cpHaloΔ9mer (FIG. 1).

T1 sequence (chain, as listed by the source mutant): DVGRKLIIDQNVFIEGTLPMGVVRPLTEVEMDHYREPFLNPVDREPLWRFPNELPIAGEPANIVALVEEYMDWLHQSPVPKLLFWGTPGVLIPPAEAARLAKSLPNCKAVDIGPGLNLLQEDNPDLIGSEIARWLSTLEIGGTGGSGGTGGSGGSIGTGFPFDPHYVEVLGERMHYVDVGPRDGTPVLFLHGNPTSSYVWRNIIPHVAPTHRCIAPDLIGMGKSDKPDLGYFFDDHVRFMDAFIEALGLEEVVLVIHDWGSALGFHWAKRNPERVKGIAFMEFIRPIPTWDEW

B1: 9mer peptide (peptide)
peptide: ARETFQAFR
notes: Free peptide titrated in the ITC assay; also called PEP1
Q: Which Kd does the source give for B1 here?
A: Its Kd is 5.3 mM.
